Reference: the Human Domainome abundance scans (Beltran et al. 2025)

B1: E3 ubiquitin-protein ligase NEDD4-like, residues 539 to 589; numbered along this chain, Q96PU5 (parent)
chain: KTSLNPNDLGPLPPGWEERIHLDGRTFYIDHNSKITQWEDPRLQNPAITGP
B2: Glucocorticoid receptor, residues 419 to 494; numbered along this chain, P04150 (parent)
chain: KLCLVCSDEASGCHYGVLTCGSCKVFFKRAVEGQHNYLCAGRNDCIIDKIRRKNCPACRYRKCLQAGMNLEARKTK

Variants of: B1
Assay: abundance fitness (aPCA) (normalised: wild type 0, dead -1); higher = more abundant; growth selection in yeast, the domain comes from the species named
Details: Homo sapiens

Abundance fitness: each site, then its substitutions
T49: A -0.121; G -0.045; L -0.104; H -0.089; D -0.086; Y -0.286; K -0.267; W -0.213; F -0.165; S -0.077; P -0.135; N -0.313; I -0.226; R -0.042; E -0.144; Q -0.199; V -0.198; M -0.091
A47: W -0.296; S -0.04; V -0.042; T -0.056; P 0.008; Q 0.193; R 0.004; L -0.083; M -0.212; N 0.011
I48: T 0.051; G 0.025; F -0.306; M -0.176; V 0.132; L -0.123; Q 1.1
G50: S -0.153; V -0.064; L 0.118; R -0.18; Y -0.202; D 0.029; T 0.166; W -0.143; A 0.012; Q -0.351; C -0.329; H -0.555; M -0.284; K 0.305; E 0.223; P -0.213
P51: R -0.345; T 0.009; V -0.65; S -0.336; C -0.232; G 0.13; E -0.109

Variants of: B2
Assay: as above
Details: Homo sapiens

Abundance fitness, by site and new letter:
L2: P -0.39; H -0.002; I 0.114; E 0.049; F 0.069; Y 0.14; M -0.024; Q 0.029; R 0.032; V -0.02; C -0.068; A 0.056; G -0.017; K 0.063; S -0.023; D -0.045; N 0.092
Y15: A -0.085; M -0.009; V -0.208; R -0.152; T -0.05; L -0.164; E -0.067; Q -0.08; G -0.096; P -0.134; W 0.008; I -0.298; H -0.088; N 0.004; C -0.153; D -0.055
C3: I -0.684; L -0.918; P -0.84; V -1.13; E -0.787; K -0.823; H -0.737; R -0.771; T -0.818; D -0.653; W -0.879; Q -0.686; Y -0.764; N -0.67; S -0.728; M -0.763; F -0.719
D8: I -0.68; N -0.147; V -0.219; Y -0.409; W -0.521; E -0.033; H -0.203; A 0.037; T -0.195; R -0.237; C -0.105; K -0.27; L -0.646; Q -0.035; M -0.216; S -0.034
C13: D -0.008; R -0.025; L -0.007; P -0.07; Q 0.001; G -0.154; E 0.04; T 0.003; H 0.112; A -0.02; W -0.055; F -0.005; V 0.015; S -0.037; K -0.018; M -0.027; I 0.112
G16: M -0.369; S -0.182; H -0.291; L -0.558; N 0; P -0.302; T -0.264; E -0.251; K -0.295; C -0.483; A -0.216; Q -0.225; R -0.318; V -0.738; D -0.078; W -0.83
S7: Y -0.109; G 0.012; L -0.017; M -0.06; E 0.012; I -0.725; Q 0.029; R -0.048; P -0.757; C -0.046; N -0.111; W -0.115; H 0.021; V -0.374; A 0.098; F -0.045; K 0.032; T -0.02; D 0
C6: L -0.992; V -1.06; I -0.751; Q -0.805; E -0.941; T -1.14; A -0.964; Y -0.653; K -1.01; S -1.22; G -0.934; P -0.931; R -0.852; W -1.03
H14: S -0.076; G -0.187; P -0.24; Q -0.077; L -0.125; R -0.137; M -0.163; T -0.161; K -0.096; E -0.102; C -0.128; D -0.016; I -0.184; V -0.367; N -0.086; Y -0.068; A -0.077; F -0.088
E9: P 0.074; K 0.105; Y -0.105; T 0.089; V 0.031; L 0.036; H -0.052; W 0.062; D -0.015; S 0.032; F -0.115; M 0.042; N 0.12; C 0.083; I -0.038; Q -0.017; R 0.04
S11: M -0.015; E 0.054; F -0.127; A -0.043; V -0.005; D 0.021; G -0.076; L 0.033; C -0.102; W -0.236; N 0.018; Y -0.174; Q 0.047; K -0.005; H 0.008; P -0.096
A10: I -0.15; R -0.453; N -0.274; V -0.305; E -0.287; P 0.004; Q -0.111; G -0.122; W -0.625; Y -0.272; F -0.362; C -0.147; T -0.161; L -0.066; K -0.408; H -0.235; S -0.079; D -0.251
L4: V -0.052; H -0.141; N -0.01; T 0.004; G -0.03; F -0.024; C 0.016; D 0.035; Y -0.029; K 0.109; R 0.017; E 0.024; S -0.026; A -0.096; Q 0.047; W -0.068; M 0.001; P -0.098
K1: Y -0.101; A -0.066; G -0.123; S -0.062; M 0.046; W -0.301; H -0.304; L -0.236; R -0.141; I -0.143; E -0.048; T -0.324; Q -0.293; N -0.12; C -0.14; D -0.002
G12: L -0.166; S -0.063; A -0.101; P -0.318; D -0.003; M -0.071; C -0.194; E -0.057; R -0.074; H -0.096; Y -0.206; V -0.166; T -0.069; Q -0.034; K -0.08; F -0.083; N -0.093; W -0.153
V5: S -1.03; N -0.703; F -0.874; C -0.749; H -0.848; K -1.15; W -0.952; T -0.742; G -0.732; I -0.007; L -0.611; P -1.1; M -0.681; Y -0.631; E -0.96; R -0.669
V17: G -0.176; I 0.129; E -0.389; F -0.355; C 0.057; D -0.405; H -0.371
